Experimental data published in patent US20190330298A1 (WORG PHARMACEUTICALS ZHEJIANG, published 2019).

Molecular target: T1, HLA-DRB1*0301 molecule (HLA-DR3 MHC class II of DR3tg mice) (human)
T1 construct: whole, on cells; MHC class II expressed by DR3tg mice (no mouse MHC II); the responding T cells came from DR3 mice; also called MHC II
Assay: in vivo presentation test in DR3tg mice; binding inferred from IFN-γ response of peptide-specific T cells to isolated CD11c+ cells
Protocol: DR3tg or DR2tg mice were injected with 100 μg of peptide in 100 μl PBS subcutaneously (s.c.) in the flank. Control animals received a s.c. injection of 100 μl PBS. After 2 hours, spleens were harvested and single-cell suspensions were made. CD11c⁺ cells were positively selected using CD11c microbeads according to the manufacturer's instructions (Miltenyi Biotec, Bergisch Gladbach, Germany). Average purities of >92% were reached. 5×10⁴ CD11c⁺ cells were co-cultured with 5×10⁴ CD4⁺ cells in round bottom 96-well plates in X-vivo 15 medium (supplemented with 2 mM L-glutamine, 50 U/mL penicillin and 50 U/mL streptomycin; Lonza). […] After 48 hours, supernatant of these co-cultures was collected and CD4⁺ T cell activation was analysed by IFN-γ ELISA (R&D Systems, Abingdon, UK). In a parallel experiment, CD4⁺ T cell responses towards peptide added in vitro were assessed to make sure the T cells recognize the peptides presented by the CD11c⁺ cells.
In FIG. 15 the ability of HIP-115NE3 (insoluble peptide) and that of its soluble version, HIP-115NE3-KKK, to be picked up and presented by MHC II molecules present on dendritic cells (DC) upon sc. injection in an in vivo setting (DR3tg mice) was compared. […] T cell activity response was measured by production of IFN-γ. […]

binding result: binds
B1: HIP-115NE3-KKK (peptide)
peptide: H-KKKVIFKKISRDKSVTIYLGKKK-NH2
notes: Synthetic; HIP-115NE3 with KKK at both ends
